The text below walks through data of patent US20090269831A1 (REGENTS OF THE UNIVERSITY OF MINNESOTA, published 2009).

Series [1] concerns the molecule itself. The series is described as follows: size exclusion, Superdex 75 (self-association). As for the experimental part:
GST-based constructs were expressed in E. coli strain BL21 DE3 RIL (Stratagene). Unlabeled proteins were produced by overnight expression at 17° C. in LB medium containing 1 mM IPTG and 200 μg/mL ampicillin. Isotope-labeled proteins were produced by overnight expression at 17° C. in M9 supplemented with ¹⁵NH₄Cl, ¹³C-labeled D-glucose and ²H water as previously described by Devany et al., Protein Sci. 13, 2252-259 (2004). Proteins were purified by sonicating cell pellets in lysis buffer [100 mM NaCl, 50 mM Na₂HPO₄/NaH₂PO₄ (pH7.0), protease inhibitor (Roche)], separating the soluble (supernatant) and insoluble (pellet) fractions by centrifugation (12,110 g, 20 min, 4° C.), binding to glutathione sepharose (GE healthcare), washing with lysis buffer and eluting with PreScission protease (GE Healthcare) in 1 mM DTT, 50 mM Na₂HPO₄/NaH₂PO₄ [pH7.4] and, finally, concentrating with Centricon filters (Millipore). Solubility was monitored by SDS PAGE, coomassie blue staining and/or immunoblotting as discussed above. […] GST and lysozyme were purchased from Sigma.

Series [2] deals with the molecule itself. Nature of the series: sedimentation velocity analytical ultracentrifugation (self-association). As for the experimental part: Sedimentation Velocity Analytical Ultracentrifugation Experiments. A3G-2K3A was diluted to 0.15, 0.4, 0.8 or 1.2 mg/ml in a buffer containing 50 mM Na₂HPO₄/NaH₂PO₄ [pH7.4], 0.005% tween 20, 5 mM dithiothreitol and 50 μM ZnCl₂. Samples were then sedimented using a 4-hole rotor at 20° C. and 55,000 rpm. The rotor and cells were preequilibrated at 20° C. and the samples were kept on ice during protein preparation and dilution. Synthetic boundary cells were loaded with 430 μL of buffer and 420 μL of the appropriate sample solution. The cells were placed in the rotor and accelerated to 24,000 rpm while monitoring the transfer of the excess buffer in each cell. Subsequently, the rotor was stopped and then gently inverted to thoroughly mix the contents of the cells. The rotor was then equilibrated under vacuum at 20° C. and after a period of ˜1 hour at 20° C. the rotor was accelerated to 55,000 rpm. Interference scans were acquired at 1 minute intervals for 6 hours. The data for each loading concentration was analyzed using the program DcDt+ (version 2.0.7). See Philo, Anal. Biochem. 354, 238-246 (2006); and Philo, Anal. Biochem. 279, 151-163 (2000). The complete data set for A3G-2K3A was analyzed using Sedphat v4.4b using the model of a hybrid local continuous distribution and global discrete species. Schuck, Anal. Biochem. 320, 104-124 (2003). […]

B1: A3G198-384 (enzyme)
chain: DPPTFTFNFNNEPWVRGRHETYLCYEVERMHNDTWVLLNQRRGFLCNQAPHKHGFLEGRHAELCFLDVIPFWKLDLDQDYRVTCFTSWSPCFSCAQEMAKFISKNKHVSLCIFTARIYDDQGRCQEGLRTLAEAGAKISIMTYSEFKHCWDTFVDHQGCPFQPWDGLDEHSQDLSGRLRAILQNQEN
notes: also called CTD
Consider B1, for which the binding result in series [1] is “no binding (tested: 1 mg (approx. 1 mL))”.

B2: A3G-2K3A (enzyme)
chain: DPPTFTFNFNNEPWVRGRHETYLCYEVERMHNDTWVKLNQRRGFLANQAPHKHGFLEGRHAELCFLDVIPFWKLDLDQDYRVTCFTSWSPCFSCAQEMAKFISKNKHVSLCIKTARIYDDQGRAQEGLRTLAEAGAKISIMTYSEFKHCWDTFVDHQGAPFQPWDGLDEHSQDLSGRLRAILQNQEN
notes: released from the GST fusion with PreScission protease
Regarding B2, the binding result in series [2] is “no binding (tested: 0.15, 0.4, 0.8 or 1.2 mg/ml)”.
